Results on 1 molecule are retold here after publication PMC10140047.

In the assay the target is T1, TwinStrep-BICD2 WT (mouse), Q921C5.
T1 chain: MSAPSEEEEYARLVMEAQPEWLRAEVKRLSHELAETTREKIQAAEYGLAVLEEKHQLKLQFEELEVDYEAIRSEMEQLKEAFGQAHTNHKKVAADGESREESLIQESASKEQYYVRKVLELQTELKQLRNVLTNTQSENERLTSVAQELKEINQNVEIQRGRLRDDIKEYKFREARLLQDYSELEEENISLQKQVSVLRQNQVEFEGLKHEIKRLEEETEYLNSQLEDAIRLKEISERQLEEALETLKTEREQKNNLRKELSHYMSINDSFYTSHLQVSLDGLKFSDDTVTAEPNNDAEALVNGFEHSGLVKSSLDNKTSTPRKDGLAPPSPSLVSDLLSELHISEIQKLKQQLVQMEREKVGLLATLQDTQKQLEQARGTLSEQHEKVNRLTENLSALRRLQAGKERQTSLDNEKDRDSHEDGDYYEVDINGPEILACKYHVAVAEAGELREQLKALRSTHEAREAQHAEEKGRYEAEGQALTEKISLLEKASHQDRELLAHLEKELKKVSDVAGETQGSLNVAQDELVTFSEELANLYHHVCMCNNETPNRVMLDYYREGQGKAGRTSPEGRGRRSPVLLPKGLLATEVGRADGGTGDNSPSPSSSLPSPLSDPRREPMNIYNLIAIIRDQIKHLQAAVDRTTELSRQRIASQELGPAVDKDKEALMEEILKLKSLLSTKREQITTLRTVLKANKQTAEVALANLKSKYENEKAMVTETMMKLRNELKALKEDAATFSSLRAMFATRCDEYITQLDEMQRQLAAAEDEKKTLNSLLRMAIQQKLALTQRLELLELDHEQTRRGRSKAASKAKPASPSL
The assay can be described thus: SEC-MALS; purified TwinStrep-BICD2 WT and S102D; predicted MW of ~190 kDa. Conditions: remark: other sources report otherwise.

B1: TwinStrep-BICD2 WT, Q921C5 1-820 (natural protein)
chain: MSAPSEEEEYARLVMEAQPEWLRAEVKRLSHELAETTREKIQAAEYGLAVLEEKHQLKLQFEELEVDYEAIRSEMEQLKEAFGQAHTNHKKVAADGESREESLIQESASKEQYYVRKVLELQTELKQLRNVLTNTQSENERLTSVAQELKEINQNVEIQRGRLRDDIKEYKFREARLLQDYSELEEENISLQKQVSVLRQNQVEFEGLKHEIKRLEEETEYLNSQLEDAIRLKEISERQLEEALETLKTEREQKNNLRKELSHYMSINDSFYTSHLQVSLDGLKFSDDTVTAEPNNDAEALVNGFEHSGLVKSSLDNKTSTPRKDGLAPPSPSLVSDLLSELHISEIQKLKQQLVQMEREKVGLLATLQDTQKQLEQARGTLSEQHEKVNRLTENLSALRRLQAGKERQTSLDNEKDRDSHEDGDYYEVDINGPEILACKYHVAVAEAGELREQLKALRSTHEAREAQHAEEKGRYEAEGQALTEKISLLEKASHQDRELLAHLEKELKKVSDVAGETQGSLNVAQDELVTFSEELANLYHHVCMCNNETPNRVMLDYYREGQGKAGRTSPEGRGRRSPVLLPKGLLATEVGRADGGTGDNSPSPSSSLPSPLSDPRREPMNIYNLIAIIRDQIKHLQAAVDRTTELSRQRIASQELGPAVDKDKEALMEEILKLKSLLSTKREQITTLRTVLKANKQTAEVALANLKSKYENEKAMVTETMMKLRNELKALKEDAATFSSLRAMFATRCDEYITQLDEMQRQLAAAEDEKKTLNSLLRMAIQQKLALTQRLELLELDHEQTRRGRSKAASKAKPASPSL
For the molecule B1, the stoichiometry N (in general, the number of molecules, sites or subunits per partner or assembly) is 2.
